Measurements as given in patent publication US20210246224A1 (Regeneron, published 2021).

Tests used:
[1] = biological target: T1, human APLP2 extracellular domain expressed with a C-terminal myc-myc-hexahistidine tag (human, UniProt Q06481 32-692); experiment: SPR, antibody captured, hAPLP2-MMH injected, 25 C
T1 construct: also called hAPLP2-MMH; APLP2.mmh

[2] = biological target: T2, human HER2 expressed on cells (cancer cell lines and normal primary cultures) (human, UniProt P04626 23-1255); experiment: imaging, Alexa647-labelled antibody on MDA-MB-361 cells at 4 C; No Block
T2 construct: Endogenous HER2 of the cell lines; the same cells also express APLP2; also called human epidermal growth factor receptor 2
Method: (§1) For the assay, cells were plated on collagen-coated, black wall, 96-well, optical plates (Greiner, Cat #655936) at 2.5×10⁵ cells per well in their appropriate culture media (described in previous examples), and incubated overnight at 37° C. in 5% CO₂. The next day, the cells were placed in refrigeration at 4° C. for 30 minutes. […] To each antibody solution, either PBS alone, human HER2 extracellular domain expressed with a C-terminal myc-myc-hexahistidine tag (hHER2-MMH; SEQ ID NO: 53) alone, human APLP2 extracellular domain expressed with a C-terminal myc-myc-hexahistidine tag (hAPLP2-MMH; SEQ ID NO: 54) alone, or the combination of hHER2-MMH and hAPLP2-MMH was added at a concentration of […]. After incubation, and removal of culture media, 50 μL/well of the bispecific antibody and soluble protein solutions were added to the cells for 30 minutes at 4° C. The cells were subsequently washed with 150 μL/well of DMEM containing 10% FBS at 4° C. for 10 minutes. […] The fixing buffer was then removed, 100 uL of DPBS/CM was added and allowed to incubate for approximately 20 minutes at room temperature prior to image acquisition. Binding of the bispecific antibodies to each of the cell types was measured using an Image Xpress^Micro automatic microscope (Molecular Devices). Data acquired was analyzed using MetaXpress software (Molecular Devices). […]

[3] = biological target: T3, human HER2 extracellular domain expressed with a C-terminal myc-myc-hexahistidine tag (human, UniProt P04626 23-652); experiment: SPR (Biacore 4000), antibody captured on anti-human Fc, hHER2-MMH injected, 37 C
T3 construct: also called hHER2-MMH; HER2.mmh
Method: (§2) Equilibrium dissociation constants (KD values) for HER2 and APLP2 binding to purified anti-HER2xAPLP2 bispecific and parental antibodies were determined using a real-time surface plasmon resonance biosensor using a Biacore 4000 instrument. The Biacore sensor surface was first derivatized by amine coupling with a monoclonal mouse anti-human Fc antibody (GE, Cat #BR-1008-39) to capture anti-HER2xAPLP2 bispecific monoclonal antibodies. […] Kinetic association rate constant (ka) and dissociation rate constant (kd) were determined by fitting the real-time sensorgrams to a 1:1 binding model using Scrubber 2.0c curve fitting software. Binding dissociation equilibrium constants (KD) and dissociative half-lives (t1/2) were calculated from the kinetic rate constants as: […]

[4] = biological target: T1, human APLP2 extracellular domain …; experiment: SPR (Biacore 4000), antibody captured on anti-human Fc, hAPLP2-MMH injected, 37 C
Method: as §2

[5] = biological target: T2, human HER2 expressed on cells (cancer …); experiment: imaging, Alexa647-labelled antibody on MDA-MB-361 cells at 4 C; competitor hHER2-MMH
Method: as §1

[6] = biological target: T2, human HER2 expressed on cells (cancer …); experiment: imaging, Alexa647-labelled antibody on MDA-MB-361 cells at 4 C; competitor hAPLP2-MMH
Method: as §1

[7] = biological target: T2, human HER2 expressed on cells (cancer …); experiment: imaging, Alexa647-labelled antibody on MDA-MB-361 cells at 4 C; competitors hHER2-MMH + hAPLP2-MMH
Method: as §1

[8] = biological target: T2, human HER2 expressed on cells (cancer …); experiment: imaging, Alexa647-labelled antibody 10 ug/mL at 4 C on NBE cells; signal per nuclei, normalised to the highest cell line
Method: (§3) After, cells were washed twice with cold DMEM+10% FBS. […] After, the solution was replaced with DPBS/CM. Binding of the bispecific antibodies to each of the cell types was measured using an Image Xpress^Micro automatic microscope (Molecular Devices). […] (See also FIG. 2.)
(§4) The signal of antibody binding (mean intensity fluorescence of Alexa647) divided by the nuclei signals was determined for each condition using MetaXpress software (Molecular Devices). Values were normalized to the cell line displaying the highest antibody binding signal.

[9] = biological target: T2, human HER2 expressed on cells (cancer …); experiment: imaging, Alexa647-labelled antibody 10 ug/mL at 4 C on NLE cells; signal per nuclei, normalised to the highest cell line
Method: as §3, §4

[10] = biological target: T2, human HER2 expressed on cells (cancer …); experiment: imaging, Alexa647-labelled antibody 10 ug/mL at 4 C on MCF7 cells; signal per nuclei, normalised to the highest cell line
Method: as §3, §4

[11] = biological target: T2, human HER2 expressed on cells (cancer …); experiment: imaging, Alexa647-labelled antibody 10 ug/mL at 4 C on T47D cells; signal per nuclei, normalised to the highest cell line
Method: as §3, §4

[12] = biological target: T2, human HER2 expressed on cells (cancer …); experiment: imaging, Alexa647-labelled antibody 10 ug/mL at 4 C on BT483 cells; signal per nuclei, normalised to the highest cell line
Method: (§5) To test the ability of bispecific anti-HER2xAPLP2 molecules described herein to bind to cells lines expressing various levels of HER2, a high content imaging assay was performed. […] Cells were plated on collagen-coated, black wall, 96-well, optical plates (Greiner, Cat #655936) at 2.5×10⁵ cells per well in their appropriate culture media, which is described for each cell line/culture in Table 6, and incubated overnight at 37° C. in 5% CO₂.
as §3, §4

[13] = biological target: T2, human HER2 expressed on cells (cancer …); experiment: imaging, Alexa647-labelled antibody 10 ug/mL at 4 C on SKBR3 cells; signal per nuclei, normalised to the highest cell line
Method: as §5, §3, §4

[14] = biological target: T2, human HER2 expressed on cells (cancer …); experiment: imaging, Alexa647-labelled antibody 10 ug/mL at 4 C on JIMT-1 cells; signal per nuclei, normalised to the highest cell line
Method: as §3, §4

[15] = biological target: T2, human HER2 expressed on cells (cancer …); experiment: imaging, Alexa647-labelled antibody 10 ug/mL at 4 C on MDA-MB-361 cells; signal per nuclei, normalised to the highest cell line
Method: as §3, §4

[16] = biological target: T2, human HER2 expressed on cells (cancer …); experiment: imaging, Alexa647-labelled antibody 10 ug/mL at 4 C on MDA-MB-453 cells; signal per nuclei, normalised to the highest cell line
Method: as §3, §4

[17] = biological target: T2, human HER2 expressed on cells (cancer …); experiment: imaging, Alexa647-labelled antibody 10 ug/mL at 4 C on MDA-MB-468 cells; signal per nuclei, normalised to the highest cell line
Method: as §3, §4

T1 sequence (Q06481 other isoform, or with tags, fused parts or gaps): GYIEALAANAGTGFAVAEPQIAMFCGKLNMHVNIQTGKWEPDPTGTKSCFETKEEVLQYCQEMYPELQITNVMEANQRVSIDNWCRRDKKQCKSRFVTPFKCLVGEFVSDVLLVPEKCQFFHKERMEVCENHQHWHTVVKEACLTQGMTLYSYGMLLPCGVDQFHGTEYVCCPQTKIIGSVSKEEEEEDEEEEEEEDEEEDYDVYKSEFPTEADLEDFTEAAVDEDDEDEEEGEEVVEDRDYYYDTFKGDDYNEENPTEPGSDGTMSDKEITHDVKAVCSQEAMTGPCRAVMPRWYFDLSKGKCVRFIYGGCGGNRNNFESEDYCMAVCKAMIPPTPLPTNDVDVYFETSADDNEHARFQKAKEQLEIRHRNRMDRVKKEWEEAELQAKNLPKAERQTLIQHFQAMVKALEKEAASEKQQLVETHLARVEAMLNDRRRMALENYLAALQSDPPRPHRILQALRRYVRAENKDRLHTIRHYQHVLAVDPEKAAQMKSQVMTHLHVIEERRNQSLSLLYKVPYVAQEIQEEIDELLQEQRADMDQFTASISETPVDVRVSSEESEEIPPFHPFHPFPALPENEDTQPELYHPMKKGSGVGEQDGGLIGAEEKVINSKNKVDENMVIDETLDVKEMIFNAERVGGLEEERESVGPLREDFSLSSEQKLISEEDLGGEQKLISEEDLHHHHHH

90 nM hAPLP2-MMH Bound (RU) [1]: 13.4 RU
Kd [1]: 8.5 nM
koff [1]: 0.000782 s⁻¹
kon [1]: 92000 M⁻¹ s⁻¹
t½ [1]: 14.8 min
Bispecific antibody signal (Fold over blank) [2]: 14 fold over blank
Kd [3]: 4.85 nM
koff [3]: 0.0009 s⁻¹
kon [3]: 186000 M⁻¹ s⁻¹
t½ [3]: 13 min
100 nM hAPLP2-MMH Bound (RU) [4]: 13 RU
Kd [4]: 281 nM
koff [4]: 0.00977 s⁻¹
kon [4]: 34700 M⁻¹ s⁻¹
t½ [4]: 1.2 min
Bispecific antibody signal (Fold over blank) [5]: 3 fold over blank
Bispecific antibody signal (Fold over blank) [6]: 13 fold over blank
Bispecific antibody signal (Fold over blank) [7]: 5 fold over blank
Antibody bound (% of highest) [8]: 10%
Antibody bound (% of highest) [9]: 4%
Antibody bound (% of highest) [10]: 9%
Antibody bound (% of highest) [11]: 7%
Antibody bound (% of highest) [12]: 22%
Antibody bound (% of highest) [13]: 100%
Antibody bound (% of highest) [14]: 17%
Antibody bound (% of highest) [15]: 35%
Antibody bound (% of highest) [16]: 31%
Antibody bound (% of highest) [17]: 1%
B1: H4H25017D (bispecific antibody, IgG4, V domains shown)
VH 1: QVQLVQSGPEVKKPGASVKVSCKASGYTFPNFGISWVRQAPGQGLEWMGWIAPYNVATNYAPKLQGRVTMTTDTSTSTAYMELRSLRSDDTAVYYCARWGAGYMGYYYYGMDVWGQGTTVTVSS
VH 2: EVQLVESGGGLVQPGGSLRLSCAASGFTFSTYVMSWVRQAPGKGPEWVSGISGRTGTTYYADSVKGRFTISRDNSKNTLYLQMNSLRAEDTAVYYCASRITAAGRGYYYYYGMDVWGRGTTVTVSS
VL: not shown
notes: Wild-type kappa CL and a modified (chimeric) IgG4 CH domain as set forth in US20140243504A1; also called bispecific anti-HER2xAPLP2 antibody
